Reference: paper PMC11616081, “Structural basis of archaeal FttA-dependent transcription termination” (Nature, 2024)

B1: Tko Spt5 (natural protein, Thermococcus kodakarensis)
chain: MAEGKIFTVSVTVGQETTTANLIYSKAKTYNLPLYAILSPSKVKGYIFIEAPNKSAVEEAIRGIRHAKRVLPGEIPFSEIEHFLEEKPAVSGFEPGDIVELIAGPFKGEKAKVVRVDESKDEIVVELVSSVVPIPVTVRGEYVRLISKRQKE
notes: Spt5, Thermococcus kodakarensis; NGN domain and KOW domain; residues 1-3 not fitted in the map; Used as Spt4/5 (Spt4-Spt5 complex) in the biochemical assays; also called NusG/Spt5
B2: Tko FttA(H255A/H591A) (enzyme, Thermococcus kodakarensis)
chain: MIRRETFVDDILKEIREIIVQMVPREAGITDVEFEGPELVIYVKNPEAMMKDGELIKNLAKVLKKRISVRPDPDILLPPEKAEELIKQLVPPEAEITNISFDPSVGEVLIEARKPGLVIGKNGETLRLITQKVHWAPRVVRTPPIQSQTIYSIRSILQTESKDRRKFLRQVGRNIYRKSEYKSRWIRITGLGGFREVGRSALLVQTDESYVLVDFGVNIAALKDPTKAYPHFDAPEFRYVLDEGLLDAIIITHAALDHSGMLPYLFRYKLFDGPIYTTPPTRDLMTLLQQDFIEIQHMNGVEPLYRPKDIKEVIKHTITLDYGEVRDIAPDIRLTLHNAGHILGSSIVHLHIGNGLHNIAITGDFKFIPTRLFEPAVSRFPRLETLVMESTYGGSNDYQMPREEAEKRLIEVIHQTLKRGGKVLIPAMAVGRAQEIMMVLEEYARVGGIEVPIYLDGMIWEATAIHTAYPEYLSKHIREQIFHEGYNPFLNPIFKSVANSRERQDIIDSGEPAIIIATSGMLVGGPSVEYFKQLAPDPKNSIIFVSYQAEGTLGRQVQRGLREIPIVGEDGRTEVINVNMEVHTIDGFSGAADRRELMSYVARVRPRPERIITVHGEAHKCLDLSSSIHKKFGISTRAPNNLDAIRLK
notes: FttA (aCPSF, aCPSF1), Thermococcus kodakarensis; domains KH1 6-75, KH2 76-144, MβLa 198-428, βCASP 433-557, MβLb 576-639; residues 1-3 of FttA^prox not fitted in the map; Dimer in the structure (protomers FttA^prox and FttA^dist); also called FttA^prox; FttA^dist
B3: Tko Spt4 (natural protein, Thermococcus kodakarensis)
chain: MAKERACRHCHYITTEDRCPVCGSRDLSDDWFDLVIVLDVESRIAKKLRESIPEAAKVPGKYAIRVR
notes: Spt4, Thermococcus kodakarensis; residues 1-3 not fitted in the map

Experiments:
Test in all cases: cryo-EM structure; 4 μM Tko RNAP, 8 μM Spt4, 8 μM Spt5 and 5 μM nucleic acid scaffold (TEC[44] or TEC[52]) in 20 mM HEPES-NaOH pH 7.5, 30 mM KCl, 10 mM magnesium acetate, 1 mM dithiothreitol, 10 min at 22 °C; then FttA(H255A/H591A) added, 10 min at 22 °C and 5 min at 42 °C; CHAPSO added before freezing; single-particle reconstruction at 2.5 Å (TEC[44]) and 2.2 Å (TEC[52])
Tko FttA(H255A/H591A) = target: B2; conditions: both partners purified
[1] = target: the molecule itself
Tko Spt5 = target: B1; conditions: both partners purified

Binder: B1
- binding result (Tko FttA(H255A/H591A)): binds

Binder: B2
- stoichiometry N [1]: 2

Binder: B3
- binding result (Tko Spt5): binds
